Test system: inguinal fat
Assay: Daily intraperitoneal injection of RUCILP2 into chow-fed mice, gene expression in inguinal fat
Assay type: in vivo, mouse
Details: 1 mg/kg i.p. daily, 7 days, normal chow
Description: FIG. 17. […] No effects on expression of marker genes for lipolysis. Recombinant RUCILP2 was daily injected intraperitoneal at a concentration of 1 mg/kg into 9-week-old wild type C57BL/6N mice for one week. The mRNA levels of indicated genes were analyzed by qRT-PCR. Data were expressed as mean±SEM, *, p<0.05; **, p<0.01; ***, p<0.001, when compared with phosphate-buffered saline (PBS) group, n=9 animals/group.
Mice (20 male wild type C57BL/6N, 8 weeks of age, Janvier) were single-housed at 23±1° C. on a 12-hour light/12-hour dark cycle with access to food and water ad libitum. After 7 days of acclimatization on a standard chow diet (Altromin 1328 diet contains 11% of fat, 24% of protein, and 65% of carbohydrates. This diet is a cereal-based (soy, wheat, corn) fixed formula which is free of alfalfa and fish/animal meal and deficient in nitrosamines) to avoid stress, the mice received daily intraperitoneal injection of 1 mg/kg recombinant RUCILP2, and saline, respectively, for 7 days. All animals were then sacrificed, and subcutaneous fat pads and liver tissue were collected. The mRNA levels of thermogenic genes including Ucp1, Elovl3, Cidea, and Prdm16 as well as lipogenic genes including Acaca and Fasn in inguinal fat were analyzed by qRT-PCR as described below.
RNA extraction and real-time PCR analysis: Total RNA was extracted from tissues using Trizol reagent (Invitrogen) according to the manufacturer's instructions, followed by concentration measurement. 1 μg RNA was transcribed to cDNA using the Reverse Transcription System (Promega). Real-time PCR was performed using the LC480 detection system (Roche Diagnostics) and SYBR Green I Supermix (Takara). Samples were run in duplicate in a single 384-well reaction plate. Data were normalized to the housekeeping Rp136, TBP or GAPDH genes and analyzed according to ΔΔCT method.

B1: RUCILP2: 87 amino acid irisin-like polypeptide cleaved from the Ruminococcus torques FNDC5-like protein RUMTOR_00181; recombinant, 6-His-tagged from E. coli (protein)
chain: APVDVKVSEITETSAKASWKNAADGKEAAGYNVYVDGVKLNKELLTEASCGLTNLKAETTYFVEVTAVDAAGNESVKSEKVTFKTLK
modifications: 6-His tag; Ruminococcus torques
notes: 87 amino acid irisin-like polypeptide cleaved from the Ruminococcus torques FNDC5-like protein RUMTOR_00181; recombinant, 6-His-tagged from E. coli
B1 was tested, and the “expression of a gene involved in lipogenesis” value was “reduces expression”, the “expression of genes involved in thermogenesis” value was “induces expression” and the “expression of marker genes for lipolysis” value was “No effects”.

Reference: patent US20240336661A1, “PEPTIDES DERIVED FROM RUMINOCOCCUS TORQUES” (University of Copenhagen, priority 2021, published 2024)
